Source: publication PMC7818228, “Laser‐facilitated epicutaneous immunotherapy with hypoallergenic beta‐glucan neoglycoconjugates suppresses lung inflammation and avoids local side effects in a mouse model of allergic asthma” (Allergy, 2020)

Columns and labels:
Test in all cases: MST; in solution; Monolith NT.115 RED; Hill fit model for multiple binding; apparent dissociation constants (Kdapp); three independent binding experiments
soluble receptor TLR5 [1] = target: soluble receptor TLR5 (UniProt Q9JLF7)
Sequence of soluble receptor TLR5 (UniProt Q9JLF7) (Q9JLF7 27-641): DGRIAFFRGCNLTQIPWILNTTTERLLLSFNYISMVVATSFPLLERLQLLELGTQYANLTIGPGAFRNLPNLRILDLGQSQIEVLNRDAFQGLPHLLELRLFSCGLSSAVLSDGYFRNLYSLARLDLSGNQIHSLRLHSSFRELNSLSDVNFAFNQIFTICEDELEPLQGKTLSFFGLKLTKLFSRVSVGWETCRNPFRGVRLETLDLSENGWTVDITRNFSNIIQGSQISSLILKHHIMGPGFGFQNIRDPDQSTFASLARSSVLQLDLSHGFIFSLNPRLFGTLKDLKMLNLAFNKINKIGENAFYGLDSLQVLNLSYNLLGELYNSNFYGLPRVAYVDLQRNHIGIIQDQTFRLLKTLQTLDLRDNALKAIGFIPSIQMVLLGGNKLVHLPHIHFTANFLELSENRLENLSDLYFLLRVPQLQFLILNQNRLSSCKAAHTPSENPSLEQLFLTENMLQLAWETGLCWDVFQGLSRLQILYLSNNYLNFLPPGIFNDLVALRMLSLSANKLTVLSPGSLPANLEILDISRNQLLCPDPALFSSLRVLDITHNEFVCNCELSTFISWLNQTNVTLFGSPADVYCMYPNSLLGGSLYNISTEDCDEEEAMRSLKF

[2] = target: soluble murine Fc-Dectin-1a receptor (mouse) (UniProt Q6QLQ4)
Sequence of soluble murine Fc-Dectin-1a receptor (mouse) (Q6QLQ4 71-244): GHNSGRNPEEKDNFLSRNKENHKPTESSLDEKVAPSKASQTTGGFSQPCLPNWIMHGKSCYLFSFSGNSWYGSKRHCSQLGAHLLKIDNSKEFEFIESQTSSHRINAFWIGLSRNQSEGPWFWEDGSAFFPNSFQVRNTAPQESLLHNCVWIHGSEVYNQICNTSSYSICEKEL

soluble receptor TLR5 [3] = target: soluble receptor TLR5 (UniProt Q9JLF7 27-641, Supplement states soluble human TLR5 fused to an IgG1 Fc domain (Fc carrier left out; 2 copies assumed from Fc dimerisation); limits are the UniProt extracellular domain by convention; lysine/amine la); conditions: both partners purified
Sequence of soluble receptor TLR5 (UniProt Q9JLF7 27-641, Supplement states soluble human TLR5 fused to an IgG1 Fc domain (Fc carrier left out; 2 copies assumed from Fc dimerisation); limits are the UniProt extracellular domain by convention; lysine/amine la) (Q9JLF7 27-641): as the sequence (Q9JLF7 27-641) above

| Molecule | Kdapp (concentration basis not stated; compared with the 0.99 µM for Dectin-1) (soluble receptor TLR5 [1]) [µM] | Kd [2] [nM] | Kdapp counted on the laminarin concentration (carbohydrate to protein ratio 0.6) [2] [µM] | Kdapp counted on the laminarin concentration (carbohydrate to protein ratio 2.5, anthrone method) [2] [µM] | Kd (soluble receptor TLR5 [3]) [nM] |
| --- | --- | --- | --- | --- | --- |
| laminarin-ovalbumin neoglycoconjugate (LamOVA) (from UniProt P01012 1-386) | 6 | 170 | 0.99 | 4.22 |  |
| ovalbumin (EndoFit Ovalbumin, endotoxin-free) (natural protein, UniProt P01012 1-386, looked up, ovalbumin (OVA), endotoxin-free commercial preparation; crystal structure 1OVA named for it; Commercial ovalbumin; also called unconjugated OVA; soluble OVA; source: bought: InvivoGen (EndoFit Ovalbumin)) MGSIGAASMEFCFDVFKELKVHHANENIFYCPIAIMSALAMVYLGAKDSTRTQINKVVRFDKLPGFGDSIEAQCGTSVNVHSSLRDILNQITKPNDVYSFSLASRLYAEERYPILPEYLQCVKELYRGGLEPINFQTAADQARELINSWVESQTNGIIRNVLQPSSVDSQTAMVLVNAIVFKGLWEKAFKDEDTQAMPFRVTEQESKPVQMMYQIGLFRVASMASEKMKILELPFASGTMSMLVLLPDEVSGLEQLESIINFEKLTEWTSSNVMEERKIKVYLPRMKMEEKYNLTSVLMAMGITDVFSSSANLSGISSAESLKISQAVHAAHAEINEAGREVVGSAEAGVDAASVSEEFRADHPFLFCIKHIATNAVLFFGRCVSP |  | 5330 |  |  | 800 ± 300 |
